Measurements from US20220251171A1, “APOLIPOPROTEIN E FRAGMENTS” (EISAI R&D MANAGEMENT CO., LTD., priority 2019, published 2022).

Assays:
rat hippocampal neurons = test: CytoTox-Glo Cytotoxicity Assay of treated rat hippocampal neurons; format: cell-based; settings: conditioned medium of treated rat hippocampal neurons, 14 DIV; FIG. 14B
Experimental: (§1) Cell culture: The dissected hippocampi from fetuses obtained on embryonic day (E) 18 from timed pregnant Wistar rats (Charles River Laboratories) were digested using trypsinization and mechanical dissociation. The dissociated neurons were seeded at 1.0×10^5 cells/well in 24-well plate (Falcon). Infection of AAV-DJ with full-length human ApoE4 was performed at 7 days in vitro (DIV). 4-{4-[2-(3-methyl-4-oxo-3,4-dihydro-phthalazin-1-yl)-acetylamido]-benzyl}-piperazine-1-carboxylic acid tert-butyl ester (hereinafter also referred to as PH-002) (Merck) was treated at 4 days after infection (11 DIV). Sample collection for western blot and cytotoxicity analysis was performed at 7 days after infection (14 DIV).
Cytotoxicity analysis: Cytotoxicity of treated compound was evaluated by CytoTox-GIo™ Cytotoxicity Assay (Promega). In brief, 50 uL of conditioned medium and 50 uL of prepared CytoTox-GIo™ Cytotoxicity Assay reagent were mixed in 96-well white-walled plate (Sumitomo Bakelite). After incubation at room temperature for 15 min, luminescence was measured by SpectraMax iD5 (Molecular Devices).

[1] = tested on: neurotoxic 12 kDa ApoE fragment; test: Western blot analysis of 12 kDa ApoE fragment production in rat hippocampal neurons expressing full-length human ApoE4; format: cell-based; settings: rat hippocampal neurons infected with AAV-DJ full-length human ApoE4; treated at 11 DIV, collected at 14 DIV; concentration dependent; FIG. 14A
Experimental: as §1
Western blot analysis: Cells were lysed by RIPA buffer (50 mM Tris-HCl pH 7.6, 5 mM EDTA, 1 mM EGTA, 1% NP40, 0.25% sodium deoxycholate, 0.1 M NaCl, 0.5 mM PMSF) containing complete (EDTA-free) protease inhibitor cocktail (Roche) and PhosSTOP protein phosphatase inhibitor (Sigma), and sonicated. Sample Buffer Solution with Reducing Reagent (6×) (Nacalai Tesque) was added before SDS-PAGE. For SDS-PAGE, XV PANTERA MP Gel (DRC) 15% was used. For transfer, Trans-Blot Turbo (BIO-RAD) was used. For immunoblotting, iBind Western Systems (ThermoFisher Scientific) was used together with anti-ApoE PA5-27088 antibody (ThermoFisher Scientific). For detection, Fusion FX7 (Vilber Lourmat) was used.

[2] = literature, Chang et al.; cited from earlier work
[3] = tested on: rat primary hippocampal neurons; test: Mitochondrial respiration measurement (spare respiratory capacity) in AAV6-infected rat hippocampal neurons; format: cell-based; settings: 7 days after AAV6 infection (14 DIV), FIG. 13B
Experimental: For assays using rat hippocampal neurons, the dissected hippocampi from fetuses obtained on embryonic day (E) 18 from timed pregnant Wistar rats (Charles River Laboratories) were digested using trypsinization and mechanical dissociation. The dissociated neurons were seeded at 1.5×10^4 cells/well in Seahorse XF96 cell culture microplate (Agilent Technologies) for mitochondrial respiration measurement or 1.0×10^5 cells/well in 24-well plate (Falcon) for Western blot analysis. Infection of AAV6 with full-length human ApoE4 or identified ApoE fragments (198-299, 199-299, 200-299) was performed at 7 days in vitro (DIV). Measurement of mitochondrial respiration or sample collection for Western blot analysis was performed at 7 days after infection (14 DIV).
(§2) Mitochondrial respiration measurement: Real-time measurement of oxygen consumption rates (OCR) was performed using an Extracellular Flux Analyzer XFe96 (Agilent Technologies). Before measurement, the culture medium was replaced by 37° C. pre-warmed XF Base Medium (Agilent Technologies) containing 10 mM sodium pyruvate (Sigma), 10 mM D-glucose (Sigma), 2 mM glutamine (Sigma). The pH of the measurement medium was adjusted to 7.4. The culture plates were incubated at 37° C. for 60 min prior to the assay. For analysis of mitochondrial function, XF Cell Mito Stress Test Kit (Agilent Technologies) was used. Following measurement of basal OCR, mitochondrial complex inhibitors were injected sequentially into each cell. The inhibitors were used at the following concentrations: oligomycin 1 μM; carbonyl cyanide 4-(trifluoromethoxy)phenylhydrazone (FCCP) 0.25 μM for Neuro2A cells, 2 μM for rat hippocampal neurons; rotenone/antimycin A 0.5 μM. OCR values were automatically calculated, recorded and plotted by the XFe96 software. Spare respiratory capacity was measured as (FCCP respiration—basal respiration).

Aβ = settings: literature, Pillot et al.; artificially-generated fragment; cited from earlier work
Neuro2A cells = test: Mitochondrial respiration measurement (spare respiratory capacity) in vector-transfected Neuro2A cells; format: cell-based; settings: Neuro2A cells expressing the fragment; FCCP respiration minus basal respiration; FIG. 13A
Experimental: Cell culture: Neuro2A cells (ATCC) were seeded at 5.0×10^4 cells/well in a 24 well plate (Falcon) and cultured in D-MEM High Glucose (WAKO) containing 10% fetal bovine serum. Transfection of pAAV-CMV vectors encoding human ApoE4 (full-length) or the identified ApoE fragments (198-299, 199-299, 200-299) was done using Lipofectamine LTX and Plus Reagent (Invitrogen) on 1 day after seeding. 2 days later, vector-transfected cells were collected for Western blot analysis or seeded again at 2.0×10^4 cells/well in a Seahorse XF96 cell culture microplate (Agilent Technologies) 4 hours before mitochondrial respiration measurement.
as §2

Molecule: Cn1nc(CC(=O)Nc2ccc(CN3CCN(C(=O)OC(C)(C)C)CC3)cc2)c2ccccc2c1=O [PH-002, 4-{4-[2-(3-methyl-4-oxo-3,4-dihydro-phthalazin-1-yl)-acetylamido]-benzyl}-piperazine-1-carboxylic acid tert-butyl ester]
- cytotoxicity (rat hippocampal neurons): no cytotoxicity
- amount of neurotoxic 12 kDa ApoE fragment [1]: reduction in the amount of neurotoxic 12 kDa ApoE fragment

Molecule: ApoE4(1-299): full-length ApoE4
- mitochondrial dysfunction and neurotoxicity [2]: did not bring about these effects

B1: 200-299: C-terminal fragment consisting of amino acids 200-299 of human ApoE (SEQ ID NO: 1) (protein)
chain: GQPLQERAQAWGERLRARMEEMGSRTRDRLDEVKEQVAEVRAKLEEQAQQIRLQAEAFQARLKSWFEPLVEDMQRQWAGLVEKVQAAVGTSAAPVPSDNH
- spare respiratory capacity [3]: reduction in spare respiratory capacity
- inhibition of the fusogenic properties of Aβ (Aβ): able to inhibit the fusogenic properties of Aβ
- spare respiratory capacity (Neuro2A cells): reduction in spare respiratory capacity

B2: 199-299: C-terminal fragment consisting of amino acids 199-299 of human ApoE (SEQ ID NO: 2) (protein)
chain: AGQPLQERAQAWGERLRARMEEMGSRTRDRLDEVKEQVAEVRAKLEEQAQQIRLQAEAFQARLKSWFEPLVEDMQRQWAGLVEKVQAAVGTSAAPVPSDNH
- spare respiratory capacity [3]: reduction in spare respiratory capacity
- spare respiratory capacity (Neuro2A cells): reduction in spare respiratory capacity

B3: 198-299: C-terminal fragment consisting of amino acids 198-299 of human ApoE (SEQ ID NO: 3) (protein)
chain: LAGQPLQERAQAWGERLRARMEEMGSRTRDRLDEVKEQVAEVRAKLEEQAQQIRLQAEAFQARLKSWFEPLVEDMQRQWAGLVEKVQAAVGTSAAPVPSDNH
- spare respiratory capacity [3]: reduction in spare respiratory capacity
- spare respiratory capacity (Neuro2A cells): reduction in spare respiratory capacity
